# Experimental data published in the DeepSol protein solubility set.
# Test: soluble on expression in E. coli; label from the status in PepcDB or PDB records
row,Sequence,soluble on expression in E. coli
1,MKRDQLKSLLLGAILLAGITLPAKAQIGEQRHNFAIGINGGANYSTVSFQPTIKQNGLLGITGGVTARYISEKYFAMICGAQLELNFSQRGWDEKFDPEQGFSSEDSYVRTMNYLEIPFLAHLAFGKDKGVQFFVNLGPQIGLLLNESEKRKGTWETANRAPNEQYGKWVENKFDYGIVGGGGIEVRTKAGNFLLEGRYYFGLADFYNSTKKDYFSRSANSTITAKITYLFDIKK,not soluble
2,MKREEYLKNYLESYLRKKEVSLTEEEFNVILREFLRFAYNPEESGQEIADTADGSKTLIHKTYGEPYHSQTAGAIRESLYKFVRPSRILEKAKERKVIRILDVGFGLGYNLAVALKHLWEVNPKLRVEIISFEKELLKEFPILPEPYREIHEFLLERVPEYEGERLSLKVLLGDARKRIKEVENFKADAVFHDAFSPYKNPELWTLDFLSLIKERIDEKGYWVSYSSSLSVRKSLLTLGFKVGSSREIGRKRKGTVASLKAPVPPMEENEVRKLVLSPFAVPMRDEKLDKEPLEILIDYLLKVYKISR,soluble
3,MKREKKSFHLHMLSDATGETLISVGRAVASQYTMSQATEHIYPMIRNKTQLQRALDEIQQEPGIVLYTIIDKKIKILLRKRCEKIEIPCIDILHPVLNAFKSYLGIPTNLRVSAQHGLNADYFRRIEALDFTIEHDDGQSPNSLSDADVILVGISRTSKTPTSIYLANRGIKTANVPLIPGINLPDTLLGAKNALIIGLIASVERISHIRQNRNLGDDFSLESYTDRINISEELTYAKRICERFSWPVIDVTRRSIEETAAEIFELLSRFREGK,not soluble
4,MKRIARLLLSCICLALLSGCLYPQERLKQNQIPYKDQVAAVQSAVDEYRKATGGLLPIKTRDMNTPMYLKYPVDFQKLVPRYMQEPPGNAYESGGVFQYMIIDAETNPTVKLLDLRLAERIRDLKLRLSMYTDKHKYPPFQDVVAPGVFTLDYKKLGYKEPPYVVSPFSGNNLPFVIDGNGEIYIDYRSDLYAALKKYPHHYKPGDDIRPILTDHSLFVPAYSLPYTIDAKTNEPIFFTK,not soluble
5,MKRIDLLLNVLDSTFDKESWYAPFKYAIEGLTAEQAMWKPAGETTNTIWENVNHLTYYKERLAANLEGREWTHNLDGNDTFYLTKQSNNDTEWKEVVERSENAQRNLRQVLSAISERELEQNSLEGKLLDIMLHDAYHTGQIIQLRKMQGAWPSKR,not soluble
6,MKRIGLTGNIGCGKSTVAQMFRELGAYVLDADKLIHSFYRKGHPVYEEVVKTFGKGILDEEGNIDRKKLADIVFKDEEKLRKLEEITHRALYKEIEKITKNLSEDTLFILEASLLVEKGTYKNYDKLIVVYAPYEVCKERAIKRGMSEEDFERRWKKQMPIEEKVKYADYVIDNSGSIEETYKQVKKVYEELTRDPLEHHHHHH,soluble
7,MKRIGVLTSGGDSPGMNAAIRAVVRKAIFHDIEVYGIYHGYAGLISGHIEKLELGSVGDIIHRGGTKLYTARCPEFKDPEVRLKGIEQLKKHGIEGLVVIGGDGSYQGAKKLTEQGFPCVGVPGTIDNDIPGTDFTIGFDTALNTVIDAIDKIRDTATSHERTYVIEVMGRHAGDIALWAGLADGAETILIPEEEYDMEDVIARLKRGSERGKKHSIIVVAEGVGSAIDIGKHIEEATNFDTRVTVLGHVQRGGSPSAQDRVLASRLGARAVELLIAGKGGRCVGIQDNKLVDHDIIEALAQKHTIDKDMYQLSKELSI,not soluble
8,MKRMHNPAHPGEVLREYLGELTVTNAAAKLGVSRVALSRILNGTNGISADMALRLEDALGTSAEMWAAMQFKYDLWVASQQPRPKITRLHV,not soluble
9,MKRPNFLFVMTDTQATNMVGCYSGKPLNTQNIDSLAAEGIRFNSAYTCSPVCTPARAGLFTGIYANQSGPWTNNVAPGKNISTMGRYFKDAGYHTCYIGKWHLDGHDYFGTGECPPEWDADYWFDGANYLSELTEKEISLWRNGLNSVEDLQANHIDETFTWAHRISNRAVDFLQQPARADEPFLMVVSYDEPHHPFTCPVEYLEKYADFYYELGEKAQDDLANKPEHHRLWAQAMPSPVGDDGLYHHPLYFACNDFVDDQIGRVINALTPEQRENTWVIYTSDHGEMMGAHKLISKGAAMYDDITRIPLIIRSPQGERRQVDTPVSHIDLLPTMMALADIEKPEILPGENILAVKEPRGVMVEFNRYEIEHDSFGGFIPVRCWVTDDFKLVLNLFTSDELYDRRNDPNEMHNLIDDIRFADVRSKMHDALLDYMDKIRDPFRSYQWSLRPWRKDARPRWMGAFRPRPQDGYSPVVRDYDTGLPTQGVKVEEKKQKF,soluble
